Results taken from patent US20200299384A1.
Positions count from the first letter of the chain named.

B1: WBP3311_2.400.5 (antibody, V domains shown)
VH: QVQLQQSGPELVNPGASVKISCKASGYSFTNYYLHWVKQRPGQGLEWIGWIFPESDNTKYNEKLKGKATLTADTSSDTAYMHLSSLTFEDSAVYFCARDSVGNYFFDFWGQGTTLTVSS
VL: DIVMSQSPSSLAVSAGEKVTMRCKSSQSLVNNRTRKNYLAWYQQKPGQPPKLLIYWASTRESGVPDRFTGSGSGTDFTLTISSVQAEDLAVYYCAQSFILRTFGGGTKLEIK
B2: WBP3311_2.482.5 (antibody, V domains shown)
VH: QVQLQQSGPELVKPGSSVKISCKPSGYTFTTYYIHWVKQRPGQGLEWIGWIFPGSDNIKYNENFKDKATLTADTSSSTAYMQLSSLTSEDSAVYFCARDSVSRYYFDYWGQGTILTVSS
VL: B1 VL with R22S, N32D, Q48L, P49S
B3: WBP3311_2.306.4 (antibody, IgG2b, V domains shown)
VH: QVQLQQSGPELVKPGASVRISCKASGFAFTDYYIHWVKQRPGQGLEWIGWISPGNVNTKYNENFKGRATLTADLSSSTAYMQLSSLTSEDSAVYFCARDGYSLYYFDYWGQGTTLTVSS
VL: DIVMSQSPSSLTVSAGEKVTMSCKSSQSLLNSRTRKNYLAWYQQKPGQSPKLLIYWASTRQSGVPDRFTGSGSGTAFTLTISGVQAEDLAVYFCTQSHTLRTFGGGTKLEIK
B4: WBP3311_2.383.47 (antibody, V domains shown)
VH: QVQLQQSGPELVKPGASVRISCKTSGFTFTNYYIHWVIQRPGQGLEWIGWISPENGNTKYNENFQDKATLTADISSSTAYMHLSSLTSEDSAVYFCARDGYSLYYFDYWGQGTTLTVSS
VL: B3 VL with T59I, Q61V, A76T, F93Y
B5: WBP331_2.488.33 (antibody, V domains shown)
VH: QVQLQQSGPELVKPGTSVKISCKASGFSFTNYYIHWVKQRPGQGPEWIGWIFPGTVNTKYNEKFKGKATLTADTSSNTAFMQLSSLTSADSAVYFCARDSVGIYYFDFWGLGTTLTVSS
VL: B1 VL with M21V, R22S, V30L, P49S, A95T
B6: WBP3311_2.844.8 (antibody, V domains shown)
VH: B3 VH
VL: B3 VL with Q61E

Biological target: mouse CD3epsilon protein (mouse) (UniProt P22646)
Sequence (P22646 22-108 limits assumed): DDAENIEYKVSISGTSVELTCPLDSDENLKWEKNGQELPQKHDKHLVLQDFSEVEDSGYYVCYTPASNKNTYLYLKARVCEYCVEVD
Test: ELISA, antigen coated on plate

Row | Binder | ELISA A450 [A450]
1 | B1 | 0.709
2 | B2 | 0.61
3 | B3 | 0.711
4 | B4 | 0.666
5 | B5 | 0.607
6 | B6 | 0.6
